# Source: patent US20180177842A1 (CANIMGUIDE THERAPEUTICS, published 2018)
# Ends that are not written are not given here.
# T1: His-tagged P3028 (PGE73) (human, also: His tag, length and end not given here)
# T1 construct: the tag is put first here only for want of a statement; also called His-tag-P3028; not shown: His tag
# T1 peptide: VFDEFKPLVEEPQNLIK
# Target: T1, His-tagged P3028 (PGE73)
# Assay: PEPSCAN ELISA: peptide on chip, His-tagged P3028 in solution, anti-His mAb and rampo conjugate
row,Binder,rampo value [rampo units]
1,KKLDTFMVKLSLFTER (on PEPSCAN card; also called P28R with M in position 7) [SEQ ID NO 9],> 700
2,KKLDTFFVKLQLFTER (on PEPSCAN card; also called P28R with Q in position 11) [SEQ ID NO 15],> 700
3,KKLDTFSVKLSLFTER (on PEPSCAN card; also called P28R with S in position 7) [SEQ ID NO 10],> 700
4,KKLDTFFVKLSLMTER (on PEPSCAN card; also called P28R with M in position 13) [SEQ ID NO 22],> 800
5,KKLDTFFVKLMLFTER (on PEPSCAN card; also called P28R with M in position 11) [SEQ ID NO 16],> 700

# Target: Artificial Cell Surface (ACS)
# Assay: ACS column adsorption of Asp-N-digested dHSA, MALDI-TOF MS
row,Binder,Percent Absorbed [%]
1,"VFLGMFLYEYARRHPDYSVVLLLRLAKTYETTLEKCCAAA [… LEKCCAAA (Asp-N-generated albumin fragment, SEQ ID NO: 227)]",100
2,"DDKETCFAEEGKKLVAASQAALGL [… (Asp-N-generated albumin fragment, SEQ ID NO: 218)]",100
3,"DHVKLVNEVTEFAKTCVA [… (Asp-N-generated albumin fragment, SEQ ID NO: 217)]",100
4,"YLSVVLNQLCVLHEKTPVSDRVTKCCCTESLVNRRPFSALEV [… (Asp-N-generated albumin fragment, SEQ ID NO: 230)]",37
5,"YSVVLLLRLAKTYETTLEKCCAAADPHECYAKVF [… (Asp-N-generated albumin fragment, SEQ ID NO: 223)]",100
6,"RVTKCCTESLVNRRPCFSALEVDETYVPKEFNAETFTFHA [… (Asp-N-generated albumin fragment, SEQ ID NO: 229)]",100
7,"ICTLSEKERQIKKQTALVELVKHKPKATKEQLKAVM [… (Asp-N-generated albumin fragment, SEQ ID NO: 225)]",100
8,"DRVTKCCTESLVNRRPCFSALEV [… (Asp-N-generated albumin fragment, SEQ ID NO: 219)]",87
9,"DETYVPKEFNAETFTHA [… (Asp-N-generated albumin fragment, SEQ ID NO: 220)]",86
10,"LGEENFKALVLIAFAQYLQQCPFEDHVKLVNEVTEFAKTCVA [… (Asp-N-generated albumin fragment, SEQ ID NO: 228)]",100
11,"LAKYICENQDSISSKLKECCEKPLLEKHCIAEVEN [… (Asp-N-generated albumin fragment, SEQ ID NO: 226)]",100
12,"DSISSKLKECCEKPLLEKSHCIAEVEN [… (Asp-N-generated albumin fragment, SEQ ID NO: 221)]",65
13,"KLCTVATLRETYGEMADCCAKQEPERNECFLQHK [… (Asp-N-generated albumin fragment, SEQ ID NO: 224)]",100
14,"DKLCTVATLRETYGEM [… (Asp-N-generated albumin fragment, SEQ ID NO: 222)]",65

# Target: Artificial Cell Surface (ACS)
# Assay: ACS column adsorption of trypsin-digested dHSA, MALDI-TOF MS
row,Binder,Percent Absorbed [%]
1,"VPQVSTPTLVEVSR [… (trypsin-generated albumin fragment, SEQ ID NO: 197)]",59
2,"FQNALLVR [FQNALLVR (trypsin-generated albumin fragment, SEQ ID NO: 199)]",41
3,"RPCFSALEVDETYVPK [… (trypsin-generated albumin fragment, SEQ ID NO: 198)]",42
4,"LKECCEKPLLEK [… (trypsin-generated albumin fragment, SEQ ID NO: 201)]",36
5,"LCTVATLR [LCTVATLR (trypsin-generated albumin fragment, SEQ ID NO: 202)]",35
6,"VFDEFKPLVEEPQNLIK [… (trypsin-generated albumin fragment, SEQ ID NO: 196)]",60
7,"SLHTLFGDK [… (trypsin-generated albumin fragment, SEQ ID NO: 200)]",36
